# Test results reported in patent US20250353906A1.
# Target: human TNFα (human) (UniProt P01375)
# Assay: cell-based or functional assay
# Sequence of human TNFα (human) (P01375 77-233 limits assumed): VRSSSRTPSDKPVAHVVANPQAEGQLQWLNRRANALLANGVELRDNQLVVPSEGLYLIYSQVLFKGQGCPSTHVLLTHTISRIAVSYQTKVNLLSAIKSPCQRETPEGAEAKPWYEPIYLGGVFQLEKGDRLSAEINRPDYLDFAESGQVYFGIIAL
substance,measurement,value
Etanercept (PRO078) (Fc fusion),"IC50 (nM, replicate 2), inhibition of TNFα signaling in HEK-BLUE TNFα cells",0.07 nM
